B1: Twister Ribozyme (parent)
chain: AACACUGCCAAUGCCGGUCCCAAGCCCGGAUAAAAGUGGAGGGGGCGG

Variants of: B1
Assay: self-cleavage, relative activity (ratio to wild type); higher = more cleavage; co-transcriptional

Variant | self-cleavage
C8G G36U | 0.11
U6C G48C | 0.829
C5A C8A | 0.133
G17U U31C | 0.495
G17U G42A | 0.104
U12C G43C | 0.145
C5G A40C | 0.198
A1U C14G | 0.0363
A4G G24U | 0.12
U18C A33G | 0.503
U18A A34G | 0.171
C5U C20A | 0.105
A11C U31C | 0.876
C25G A34C | 0.115
A33U G44U | 0.897
A34U G42A | 0.169
C26U A35U | 0.553
A32U A35C | 1.01
G24C C25A | 0.325
U18G C19U | 0.105
G16A G29C | 0.339

Variant | self-cleavage
A1C C27U | 0.138
U18C G43A | 0.188
C26G | 0.449
C14G C15G | 0.243
A34G G42U | 0.131
G28A A32U | 0.817
C26G G45C | 0.117
A11U G48A | 0.951
A4U A30U | 0.11
A22G G45C | 0.124
G39C G47A | 0.152
C21G G43C | 0.0506
U18A C27G | 0.0805
C3G C5G | 0.101
C14U C25U | 0.909
C3U G38A | 0.396
U6C A23C | 0.0308
G24C G29A | 0.132
C20U A33C | 0.894
A2U A11U | 0.75
C5A C14A | 0.593

Variant | self-cleavage
A30C G41C | 0.124
A35C G43C | 0.206
U31C | 1.01
A32U A34C | 0.231
U6G G45A | 0.141
U37G G41A | 0.209
G16C G28C | 0.306
G39A C46U | 0.445
G39A C46A | 0.463
U6G G17A | 0.075
A10U C19G | 0.367
A22U A32C | 0.859
G7A A32C | 0.38
U6C C46G | 0.589
C9A A23U | 0.066
U31C G36C | 0.635
C8G C27A | 0.0513
G16U U31C | 0.725
C8A G28A | 0.281
C21G G47U | 0.142
C26A G39U | 0.116

Variant | self-cleavage
G28C G41U | 0.332
A11C G43C | 0.159
A11G A35G | 0.826
C5U G29U | 0.631
C5A G39A | 0.161
A1G C14U | 0.693
C5U G47C | 0.315
G7A C25U | 1.09
C14U | 1.1
G13A | 1.05
A10U U37C | 0.667
A4U G48A | 0.191
U6G U37C | 0.159
U6G U37G | 0.196
G41A G47C | 0.2
U18C G45C | 0.132
A4U C21A | 0.0381
G13A G29A | 0.653
G16A C19U | 0.826
A23G G28A | 0.284

Source: the RNAGym collection of RNA variant scans (doi:10.7554/elife.80360)
